Test results as given in the supplement of paper PMC11246515.
± gives the standard deviation of the averaged measurements.

Assay: total protein half-life in vivo (active degradation + dilution); higher = more stable protein
[1] = E. coli NCM3722 delta-clpP delta-lon delta-hslV, growth: N-lim chemostat, doubling time 6 h
[2] = E. coli NCM3722 delta-hslV, growth: N-lim chemostat, doubling time 6 h
[3] = E. coli NCM3722 delta-lon, growth: N-lim chemostat, doubling time 6 h
[4] = E. coli NCM3722 delta-smpB, growth: N-lim chemostat, doubling time 6 h
[5] = wild type E. coli NCM3722, growth: C-lim chemostat, doubling time 3 h
[6] = wild type E. coli NCM3722, growth: C-lim chemostat, doubling time 6 h
[7] = wild type E. coli NCM3722, growth: C-lim chemostat, doubling time 12 h
[8] = wild type E. coli NCM3722, growth: N-lim chemostat, doubling time 6 h
[9] = wild type E. coli NCM3722, growth: N-lim chemostat, doubling time 12 h
[10] = wild type E. coli NCM3722, growth: P-lim chemostat, doubling time 6 h
[11] = wild type E. coli NCM3722, growth: P-lim chemostat, doubling time 12 h
[12] = E. coli NCM3722 delta-clpP, growth: N-lim chemostat, doubling time 6 h

Row | Sequence | total protein half-life in vivo [1] | total protein half-life in vivo [2] | total protein half-life in vivo [3] | total protein half-life in vivo [4] | total protein half-life in vivo [5] | total protein half-life in vivo [6] | total protein half-life in vivo [7] | total protein half-life in vivo [8] | total protein half-life in vivo [9] | total protein half-life in vivo [10] | total protein half-life in vivo [11] | total protein half-life in vivo [12]
1 | MSHHHEGCCKHEGQPRHEGCCKGEKSEHEHCGHGHQHEHGQCCGGRHGRGGGRRQRFFGHGELRLVILDILSRDDSHGYELIKAIENLTQGNYTPSPGVIYPTLDFLQEQSLITIREEEGGKKQIALTEQGAQWLEENREQVEMIEERIKARCVGAALRQNPQMKRALDNFKAVLDLRVNQSDISDAQIKKIIAVIDRAAFDITQLD | 4.91 ± 0.66 h | 3.22 ± 0.047 h | 4.273 ± 0.011 h | 3.33 ± 0.41 h | 2.55 ± 0.029 h | 4.67 ± 0.56 h | 8.76 ± 2.2 h | 3.65 ± 0.74 h | 5.05 ± 0.53 h | 4.8 ± 0.27 h | 8.64 ± 0.59 h | –
2 | MGKLTGKTALITGALQGIGEGIARTFARHGANLILLDISPEIEKLADELCGRGHRCTAVVADVRDPASVAAAIKRAKEKEGRIDILVNNAGVCRLGSFLDMSDDDRDFHIDINIKGVWNVTKAVLPEMIARKDGRIVMMSSVTGDMVADPGETAYALTKAAIVGLTKSLAVEYAQSGIRVNAICPGYVRTPMAESIARQSNPEDPESVLTEMAKAIPMRRLADPLEVGELAAFLASDESSYLTGTQNVIDGGSTLPETVSVGI | 5.394 ± 0.017 h | – | – | 4.12 ± 0.29 h | 2.91 ± 0.32 h | 6.12 ± 0.41 h | 10.2 ± 1.1 h | 5.35 h | 6.28 h | 6.25 ± 0.41 h | 14.8 ± 0.61 h | 4.09 ± 0.14 h
3 | MQTQIKVRGYHLDVYQHVNNARYLEFLEEARWDGLENSDSFQWMTAHNIAFVVVNININYRRPAVLSDLLTITSQLQQLNGKSGILSQVITLEPEGQVVADALITFVCIDLKTQKALALEGELREKLEQMVK | 4.69 ± 0.88 h | 3.46 ± 0.25 h | – | 3.35 ± 0.049 h | 3.22 ± 0.17 h | 5.29 ± 0.48 h | 7.87 ± 0.63 h | 3.29 ± 0.11 h | 4.77 ± 0.72 h | 5.365 ± 0.043 h | 9.67 ± 0.54 h | 3.29 ± 0.61 h
4 | MQFEKMITEGSNTASAEIDRVSTLEMCRIINDEDKTVPLAVERVLPDIAAAIDVIHAQVSGGGRLIYLGAGTSGRLGILDASECPPTYGVKPGLVVGLIAGGEYAIQHAVEGAEDSREGGVNDLKNINLTAQDVVVGIAASGRTPYVIAGLEYARQLGCRTVGISCNPGSAVSTTAEFAITPIVGAEVVTGSSRMKAGTAQKLVLNMLSTGLMIKSGKVFGNLMVDVVATNEKLHVRQVNIVKNATGCSAEQAEAALIACERNCKTAIVMVLKNLDAAEAKKRLDQHGGFIRQVLDKE | 5.64 ± 0.068 h | 5.96 ± 1.8 h | 4.88 ± 0.37 h | 4.08 ± 0.35 h | 3.04 ± 0.084 h | 5.28 ± 0.059 h | 8.41 ± 0.19 h | 4.37 ± 0.25 h | 8.74 ± 0.62 h | 5.92 ± 1.1 h | 9.65 ± 0.26 h | 4.82 ± 0.37 h
5 | MAKNYAALARSVIAALGGVDNISAVTHCMTRLRFVIKDDALIDSPTLKTIPGVLGVVRSDNQCQVIIGNTVSQAFQEVVSLLPGDMQPAQPVGKPKLTLRRIGAGILDALIGTMSPLIPAIIGGSMVKLLAMILEMSGVLTKGSPTLTILNVIGDGAFFFLPLMVAASAAIKFKTNMSLAIAIAGVLVHPSFIELMAKAAQGEHVEFALIPVTAVKYTYTVIPALVMTWCLSYIERWVDSITPAVTKNFLKPMLIVLIAAPLAILLIGPIGIWIGSAISALVYTIHGYLGWLSVAIMGALWPLLVMTGMHRVFTPTIIQTIAETGKEGMVMPSEIGANLSLGGSSLAVAWKTKNPELRQTALAAAASAIMAGISEPALYGVAIRLKRPLIASLISGFICGAVAGMAGLASHSMAAPGLFTSVQFFDPANPMSIVWVFAVMALAVVLSFILTLLLGFEDIPVEEAAAQARKYQSVQPTVAKEVSLN | – | – | – | – | 1.77 ± 0.078 h | – | 3.55 h | – | – | – | – | –
6 | MKKATCLTDDQRWQSVLARDPNADGEFVFAVRTTGIFCRPSCRARHALRENVSFYANASEALAAGFRPCKRCQPEKANAQQHRLDKITHACRLLEQETPVTLEALADQVAMSPFHLHRLFKATTGMTPKAWQQAWRARRLRESLAKGESVTTSILNAGFPDSSSYYRKADETLGMTAKQFRHGGENLAVRYALADCELGRCLVAESERGICAILLGDDDATLISELQQMFPAADNAPADLMFQQHVREVIASLNQRDTPLTLPLDIRGTAFQQQVWQALRTIPCGETVSYQQLANAIGKPKAVRAVASACAANKLAIIIPCHRVVRGDGTLSGYRWGVSRKAQLLRREAENEER | – | 2.03 h | 3.25 ± 0.14 h | 2.46 h | – | 3.38 h | 4.07 h | 2.22 h | 3.48 h | 1.81 h | 3.5 ± 0.11 h | 3.82 ± 0.28 h
7 | MKTSDNERIKYEITGQAVLQILRMKINFSLQTLIKQLLVMKSAEEDAFRRDLIDSIIRDFSNSDSGGPNRRTATADNKSMFNGKKINRIH | – | – | – | – | – | – | – | – | – | – | 3.79 h | –
